Assay: yeast display, Sf9 membrane polyspecificity reagent, FACS + sequencing; frameworks hold sequencing errors
Method in brief: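 Genes from sorted yeast were amplified by colony PCR, read by MiSeq 2 × 250 sequencing and filtered on CDR length. These cells carried a synthetic nanobody library in Saccharomyces cerevisiae BJ5465 and were sorted by FACS into low and high (top ~1%) gates on anti-HA and streptavidin fluorescence. Polyreactivity is labelled according to the gate of origin.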

Sequence	polyreactivity (PSR sort gate)
QFQLEESGGGLVQAGGSLRLSCAASGSTFWYNAMVWYIQATGKEMELVAAISSSGGSTYYADSVKGRFTISRDNAKYTVYLQMNSLKPEDSAVYYCNTRYVYTRGGTLKRDYLGQGTQVTVSS	high polyreactivity
QVQLVESGGGLVQAGGSLRLSCAASGIIFTYYDMGWYRQAPGKERELVAGIDYSGTSTYYADSVKGRFTISRDNAKNTVYLQMNSLKPEDTAVYYCAAVPVWGGYFAGEYYYWGQGTQVTVSS	high polyreactivity
QVQLVESGGGLVQAGGSLRLSCAASGRIFDCYAMGWDRQAPGKERELVAAIRASGGRTYYADSVKGRFTISRDNAKNTVYLQMNSLKPEDTAVYYCAADSVKYGGDYGGQGTQVTVSS	high polyreactivity
QVQLVESGGGLVQAGGSLRLSCAASGSIFQFYAMGWYRQAPGKERELVADISYGGSTYYADSVKGRFTISRDNAKKTVYLQMNSLKPEDTAVYYCAAAAYWWVKGFGSYYWGQGTQVTVSS	high polyreactivity
QVQLVESGGGLVQAGGSLRLSCAASGSIFEWYAMGWYRQAPGKASALVAAISSGGRTYYADSVKGRFTISRDNAKNTVYLQMISLKPEDTAVYYCAARDVDHVGGSKYYYWGLGTQVTVSS	high polyreactivity
QVQLVESVGGLVQAGGSLRLSSAASGFTFKYYAMVWYRQAPGKERELVAAISWSGTRTYYADSVKGRVTISRDNAKYTVYLQMNSLKPEDTAVYYCDADFNGRYDYWGQGTQVTVSS	high polyreactivity
QVQLVESGGGLVQAGGSLRLICAASGSTIGGYVMGWYRQAPGKERELVAAISRSGASTYYADSVKGRFTISRDNAKNTVYLQMNSLKQEDTAVYYCAAYQARGMDYWGQGTQVTVSS	high polyreactivity
QVQLVESGGGLVQAGGSLRISCAASGRTFSRYAMGWYRQAPGKERELVAAITRGGGGTYYADSVKGRFTISRDNAKNTVYLQMNSLKPEDTAVYYCNRVLLPGPQYQWGKAYDYWGQGTQVTVSS	high polyreactivity
QVQLVESGGGLVQAGGSLRLSCAASGRTLQRNAMGWYRQAPGKERELVADISWSGASTYYADSVKGRFTISRDNAKNTVYLQMNSLKPEDTAVYYCAATYIDRGNIYDYWGQGTQVTVSS	high polyreactivity
QVQLVESGGGLVQAGGSLRLSCAASGSNFHPNGMGRYRQAPRTERELVAAIRRSGGSTYYADSVKGRFTISRDNAKNTVYLQMISLKAEDTAVYYCAAKHYYYSRYVRYDPPPGYYWGQGTQVTVSS	high polyreactivity
QVQLVESGGGLVQAGGSLRLSCAASGFIFGRNTMGWYIQAPGKERELVAAITSGGSTNYADSVKGRFTISRDNAKNTVYLQMNSLKPEDTAVYYCAAEVSTYWTLYDYWGQGTQVTVSS	high polyreactivity
QVQLVESGGGLVQAGGSLRLSCAASGFIFRRYAMGWYRQAPGKERELVAAISGSGGRTYYADSVKGRFTISRDNAKNTVYLQMNSLKPEDTAVYYCAADHGSLLYDYWGQGTQVTVSS	high polyreactivity
QVQLVESGGGLVQAGGSLRLSCAASGSTIFENVMGWYRQAPGKEREFVAAINTSGGSTYYADSVKGRFTISRDNAKNTVYLQMNSLKPEDTAVYYCARDSYWEMDYWGQGTQVTVSS	low polyreactivity
QVHLVESGGGLVQPGGSLRLSCAASGNTFQSYARGWYRQAPRKEREFVAAIRQSGGSTYYAESLKGRFTISRDNSKYSVYLLMKRLKPEDTAVYYCGTGRSRVYNGRGDYWGQGTQVNVSS	high polyreactivity
QVQIVESGGGLVQAGGSLRLSCAASGRSFYKYAMGWYRQAPGKERELVAAISKSGGRTYYADSVKGRFTISRDNAKNTVYLQMNSLKPEDTAVYYCAAEPFIPDQSRYYYWGQGTQVTVSS	high polyreactivity
QVQHVESGGGLVQAGCSLRLSCAASGRTFTYYAMGWYRQARGKESELVATISWRGSSTYYADSVKGRFTISRDNAKNTVYLQMNSLKPEDTAFYYCAARTYRWGYEDNYWGQGTQVTVSS	high polyreactivity
QVQLVESGGGLVQAGGSLRLSCAATGSIIPFYAMGWYRQATGKEREFVAAISRTGGNTYYADSVKGLLTISRDNAKNTVYLQMNSLKPEDTAVYFCATKRKWTYLSFDYWGQGTQVTVSS	low polyreactivity
QLQLVESGGGLVQAGGSLRLSCAASGRTFERNAMGWYRQARGQERELVAAITWSGVSTYYADSVKGRFTISRDNAKNTVYLQMNSLKPEDTAVYYCAADWDWRFHRMNYWGQGTQVTVSS	low polyreactivity
QVQLVESGGGLVQAGGSLRLSCAASGIIFRGNAMGWYRQAPGKERELVAAISRSGRTNYADSVKGRFTISRDNAKNTVYLQMNSLKPEDTAVYYCAVDKRYGRVVGRDYDYWGQGTQVTVSS	high polyreactivity
QVHLVESGGGLVQAGGSHRLSCAASGRIFRGYAMGWYIQAPGKERELVAAISGRGGRTYYADSVKGRFTISRDNAKNTVYLQMNSLKPEDTAVYYCNARRGRRGYYGNGDYWGQGTQVTVSS	high polyreactivity
QVQLVESGGGLVQAGGSLRLSCAASGSIFWLYAMGWYRQAPGKERELVAAITRRGGSTYYADSVKGRFTISRDNAKNTVYLQMNSLKPEDTAVYYCNRLYYSGSGASLDYWGQGTQVTVSS	high polyreactivity
QVQLVESGRGLVQAGCSLRLSCAASGRTFSLYAMGWYRQAPGKERELVAAITLSAGSTYYADSVKGRFTISRDNEKNTVYLQMNSLKPEDTAVYYCNTRTLVAMGYWGQGTQVTVSS	high polyreactivity

Sequence	polyreactivity (PSR sort gate)
QDQLVESGVGLVQAGGSLRLSCAASGIIIYRNTLGWYRQAPGKERELVAAIRRGGNTYYADSVKGRFTISRDNAKNTVYLQMNSLKPEDSAVYYCAASAGPRASYYYWGQGTQVTVSS	high polyreactivity
QVQLVESGGGLVQAGGSLRLSCAASGYSLYANAKGWSRQAPGKERELVASITFGDDSTYYADSVKGRFTISRDNAKNTVDLQMNSLKPEDTAVYYCNADHKVEVEDDYCGQGTQVTVSS	low polyreactivity
QVQLQESGGGLVQAGGSLLSCAASGTISYYREMGWYRQAPGKERELVAGIGVGTITYYADSVKGRITISRDNAKNTVYLQMNSLKPEDTAVYYCEAHIDGNDSHAYWGQGTQVTVSS	low polyreactivity
QVQLVESGGGLVQAGGSLRLSCAASGRTFRVYAMGWYRQAPGKERELVAAIRSGGNTNYADSVKGRFTISRDNAKNTVYLQMNSLKPEDTAVYYCAATTYVVASRYVGTLGDDYWGQGTQVTVSS	high polyreactivity
QVQLVDSGGGLVQAGASLRLSCAASGSIFRFYAMGWYRQAPGKERELVAAITSRGSTNYADSVKGRFTISRDNAKNTVYLQMKSLKPEDTAVYYCAAELVYFVIYDYWGLGTQVTVSS	low polyreactivity
QVQLVESGGGLVQAGGSLRLSCAASGFTIASNAMGWYRQAPGKERELVAAIRRSGSRTYYADSVKGRFTISRDNAKNTVYLQMNSLKPEDTAVYYCAVVSPRQSYYYWGQGTQVTVSS	high polyreactivity
QVQLVESGGGLVQAGGSLRVSCAASGFTFDYYAMGWYRQAPGKEWEFVAAISSRGDDTYYADSVKGRFTISRDNAKNTVYLQMNSLKPEDTAVYYCAKVWRYGRYEYGYWGHGTQVTVSS	high polyreactivity
QVQLVESGGGLVQAGGSLRLSCAASGRILSRYVMGWYRQAPGKERELVAAISGRATSTYYADSVKGRFTISRDNAKNTVYLQMNSLKPEDTAVYYCATGYKTYAVTLYDYWGQGTQVTVSS	high polyreactivity
QVQLVESGGGLVQAGGSLRLSCAASGITFPLYAMGWYRQAPGKERELVATISGRGGSTYYADSVKGRFTISRDNAKNTVYLQMNSLKPEDTAVYYCNADFRSPYFLLSWYHSGDYWGQGTQVTGSS	low polyreactivity
QVHLVESGGGLVHAGGSLRVSCAASGYTFHRYAMGWYRQAPGKERELVAAITRGGGSTRYADSVKGRFTISRDNAKYTVYLQMNSLKPEDTAVYYCAAERRTPGRTTYYYWGQGTQVSVSS	high polyreactivity
QVQLVESGGGLVQAGGSLRLSCAASGRTFADYGMGWYRQAPGKERELVAAITSSGGSTYYADSVKGRFTISRDNAKNTVYLQMNSLKPEDTAVYYCAAQQSPSVDYWGQGTQVTVTS	low polyreactivity
QVQLVESGGGLVQAGGSLRLSCAASGRTCYNTMGWYRQSPGKERELVAAISRGGITNYADSVKGRFTISRDNAKNTVYLQMNSLKPADTAVYYCIAEPKRYYYYYKFDYWGQGTQVTVSS	high polyreactivity
QVQLVESGGGLVQAGGSLRLSCAASGSIFDLYAMGWYRQAPGKERELVAAINSGGSTYADSVKGRFTISRDNSKNTVYLQMNSLKPEDTAVYYCNADYRHSLGSGYDYWGQVTQVTVSS	low polyreactivity
QVQLVETGGGLVQAGGSLRLSCAASGITITVYAMGWYRQAPGKERELVAAINSGSSTNYADSVKGRFTISRDNAKNTVYLQMNSLKTEVTAVYYCDASYRTLPDKKRYCYWGQGTQVTVSS	high polyreactivity
QVQLVESGGGLVQAGGSLRLSCPASGRTFKRYAMGWYRQEPGKEMELVASISWRGGSTYYADSVKGRFTISRDNAKNTVYLQMNSLKPEDTAVYYCAAEGPGNVYKLDYWGQGTQVTVSS	low polyreactivity
QVQLVESGGGLVQAGGSLRLSCAASGLTFVPNARGWYRQAPGKERELVAASSNNGGRTYYADSVKGRFTISRDNAKKTVYLQMNSLKPEDTAVYYCAKYLSPGERHSYDYWGQGTQVTVSS	high polyreactivity
QVQLVESGGGLVQAGGSLRLSCAASGSYLRYYAMGWYRQAPGKERELVAAISRSGTKTYYADSVKGRFTISRDNAKKTVYLQMNSLKPEDTAVYYCAARGYYRDYDSWGQGTQVTGSS	high polyreactivity
QVQLVESVGGLVQAGGTLRLTCAASGSNFKAYAMRWYRQATGKERELVARIRYRGGSTYNADSVKGRFTISRDNAKNTVFLQMNSLKPEETAVYYCAARLSPYHTDRGDYLGQGTQVTVSS	high polyreactivity
QVQLVESGGGLVQAGGSLRLSCAASGRIFYKYAKGWYRQAPGKERELVAAITTSGGSTYYADSVKGRFTISRDNAKNTVYLQMKSLKPEDTAVYYCARDLNGRFLTTGRGMDYWGQGTQVTVSS	high polyreactivity
QVQLVESGGGLVQAGGSLRLSCAASGSIFVLNAMGWYRQAPGKERELLAGITYSGGSTYYADSVKGRFTISRDNAKNTVYLQMNSLKPEDTAVYYCAAPVRRYPYPGRFYYWGQGTQVTVSS	low polyreactivity
KVQLVESGGGLVQAGGSLRLSCAASGSNFVYNAMGWYRQAPGKEREFVAAISGSGGSTYYADSVKGRFTISRDNAKNTVYLQMNSLKPEDTAVYYCATAGRYGRYRTYPYRSKYDYWGQGTQVTVSS	high polyreactivity

Source: the nanobody polyreactivity screen of Harvey et al. (2022)
